Assay results reported in publication PMC11667166.
Where two headings read alike, the source gives them in different places.

Substance: CD320: N213Q
- localisation_or_trafficking (N-glycosylation at N213): no change

Substance: CD320: N126Q
- localisation_or_trafficking (N-glycosylation at N126): no change

Substance: CD320: N195Q
- localisation_or_trafficking (N-glycosylation at N195): no change

Substance: CD320: N126Q/N195Q/N213Q (QQQ)
- localisation_or_trafficking (N-glycosylation at N126): no change
- localisation_or_trafficking (N-glycosylation at N195): no change
- localisation_or_trafficking (N-glycosylation at N213): no change
